Target: T1, human Aβ peptide (1-40) biotinylated at the C terminus (human, UniProt P05067 672-711, biotinylated at the C terminus)
T1 construct: domain: beta-amyloid peptide (1-40); the peptide starts at the BACE-1 cleavage site (DAEFRHD...); also called beta-amyloid 1-40 peptide (biotinylated at the C-terminus); streptavidin-captured beta-amyloid (1-40)
Assay: Biacore SPR, similar to Method A(i); streptavidin-captured beta-amyloid (1-40), Fab in solution

T1 sequence (P05067 672-711 limits assumed): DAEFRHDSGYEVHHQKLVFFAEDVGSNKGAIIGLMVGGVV

B1: Fab fragments of H2L1, obtained by papain digestion (Fab, V domains shown)
VH: EVQLVESGGGLVQPGGSLRLSCAVSGFTFSDNGMAWVRQAPGKGLEWVSFISNLAYSIDYADTVTGRFTISRDNAKNSLYLQMNSLRAEDTAVYYCVSGTWFAYWGQGTLVTVSS
VL: DIVMTQSPLSLPVTPGEPASISCRVSQSLLHSNGYTYLHWYLQKPGQSPQLLIYKVSNRFSGVPDRFSGSGSGTDFTLKISRVEAEDVGVYYCSQTRHVPYTFGGGTKVEIKR
notes: also called H2L1 Fab
Work on B1 yielded a Kd of roughly 2.4 nM.
